Data taken from the DeepSol protein solubility set.

Assay: soluble on expression in E. coli; label from the status in PepcDB or PDB records

| Sequence | soluble on expression in E. coli |
| --- | --- |
| MEQKNVRNFCIIAHVDHGKSTLADRLLEYTGAISEREKREQLLDTLDVERERGITVKMQAVRMFYKAKDGNTYKLHLIDTPGHVDFSYEVSRALAACEGALLLIDASQGIEAQTVANFWKAVEQDLVIIPVINKIDLPSADVDRVKKQIEEVLGLDPEEAILASAKEGIGIEEILEAIVNRIPPPKGDPQKPLKALIFDSYYDPYRGAVAFVRIFDGEVKPGDKIMLMSTGKEYEVTEVGAQTPKMTKFDKLSAGDVGYIAASIKDVRDIRIGDTITHAKNPTKEPVPGFQPAKPMVYAGIYPAEDTTYEELRDALEKYAINDAAIVYEPESSPALGMGFRVGFLGLLHMEIVQERLEREYGVKIITTAPNVIYRVKKKFTDEVIEVRNPMDFPDNAGLIEYVEEPFVLVTIITPKEYVGPIIQLCQEKRGIQKNMTYLDPNTVYLEYEMPLSEIIVDFHDKIKSISRGFASYDYEFIGYRPSDLIKLTVLINKKPVDALSFIVHADRAQKFARRVAEKLRETIPRQLFEVHIQVAKGGKVIASERIKPLRANVTAKCYGGDVTRKKKLLENQKEGKKRMKQFGKVQLPQEAFLSVLKVE | soluble |
| MEQPEKNIKLAYDGEIHLAVGASKTEKKWKNRQMSWSDFTQRLKTPTVTQETVEDYKKMPKSKQGEVKDVGAFIGGWLKEGRRKRGNTQQRSLVTLDADSTTLDFWDDVQLLFDHAAAVYTTHSHLVKGPRYRLIIPLSRPVTAEEYEPLARKLAEFFGMDNFDDTTYQAERLMYWPSHSIDGEYFTDNIDLPWVDPDEILSQYEDWRDASFWPESSRGHSIRERQAKKAGDPLEKKGIVGAFCRTYDIISAIETFLPDIYGSTGREDRWTFLEGSTSGGLVIYDDKFAYSHHGTDPVGDQLVNAFDLVRIHLFGDLDEDVKPTTRIDRYPSFKAMREFAMEDKQVKTLIQSEKLSQALEDFDGELDELEEDDKDWFTKLDLEIDEYGQIMASAKNLEVIMLNDPNLKKKIFMNSFSNRIEVKDNLPWRKLDRDKMWKDSDDAGLRVYIEKIYGIVNRGKIDDALVQEIERNSYDPVKEYLESLHWDGVPRVETLLIDYLGAEDTPFIRVVTKKFLTAAVGRIFVPGIKFDYMLVTSGPQGIGKTLLPAKLAGDWFSNSLEGVTGKDSYEALQGVWIMEMGELSATKKADIEATKHFISKQEDIFRVAYGRHKSYFKRRCVFWGTTNDNEFLRDKTGNRRFWPVDVGIQPIKNKVWEMTDETRNQIWAEAVELWQAGEPLYLTDEQEKLALEAQEMHTETSSMEGEILEYLEIPITEDWYKRSKQERREYIQGWGTDIQEEGEIVRNKVCIAEVWNELYNGDSKNIHPAKAAEIRQVLSHLSGWEKNSKGNKGRLRFGPGYGVQVAYLRVTP | not soluble |
| MEQQRDFDSALAWHRKAKCAGKAGSADVLPGHDKDANAARVVELCAMCADCPVFEQCGREAIAEPFLTLGVVRAGIPDTTQSKSKQKKLLQQVIDEGVPPPVALIMALKDRKGYEGALVGLAGLYEAYRGVYV | not soluble |
| MEQSIFRDEKGDCPIVYLAGTLISIGSKPSARYGVCWGAGHAKNEGGPVAGSQTSLRAELTALRRTLEIALAEDITKLIIVFPSKMLGEQLEVWERRPEQHASFENSDILYRVEQLFGEAEARMYFSIDLPTPPDPRAHGYTKALQLARTMLVASRISRNSQITTVAIFAICEKEGKCDALAKYGVYWGQDDHRNEAGLVEDGQTSLRAIMCAVRSALRTAAMHGLKRVHFLTRRIDIINIIKKLAKGEEEDSPGKRNGAIFSDCSRLRSELLDISVKLVQKDVPCVELDRAEAITRGATKKLKKRDNEYERLDRQLLMIESSSSASSPESQPKIENIGDKCPTAVILNLLVRPKFGHSKVSYAVYWGENDEKNERGPVNMRAHAFQADLYAAMCALKKARSKNIRKLHLLTTSEYFKNWMENVQKKNELINDRYDVMMEFQLLLQNFESVTIEVVNSSTQGARRKMYEDAQTFFAGRNESIQKQRSIEDIQLEDPIENNIVEAESVNPESSNQIQVVYVGGACRGRGYANALAVYSVVWPIGEYGCSQGPVTGIVNNIRAKLAAVKSALQQAEQLGIASLIIRTNDQMVHDTLILQNSPIGNIDLMDDIESYKSRMRFVAYQLTTGDYARGNVVADRLAEVIVESIF | soluble |
| MEQYHKIVLTGSNAETMLIKNIEPVAVKFINNYKGFFYVFKYSKDFPIIDVYINNKIVTENQLNKILQNSGAKYKIYKNSIFNETQGNFGMLGDKYLAEFFKKTNEISLNILNQNFESYNKKIEFALEIMLISAHYNYDSIKKGYLSYASHVNGFFTRWKDPNKIRDIFHKNYLNNKEYLESKVSEIIDNNNRSSLSELSDIITEMKKEMTTDIEKGNLHVFNIELLQKPGERDFLEKSQFHKTILNNPDFSNFMNKDINFLGSRLITVFTYLLIRNLGIQNKDRYLLCYYIYKIIEEKYNIDTLELIRDFGKGRDNNVEDLQRY | not soluble |
| MERFLRLGGLGGNLGTFGANPQDSNQVDTSETVYISSLALLKMLKHGRAGVPMEVMGLMLGEFVDDYTVNVIDVFAMPQSGTGVSVEAVDPVFQAKMLDMLKQTGRPEMVVGWYHSHPGFGCWLSGVDINTQQSFEALSDRAVAVVVDPIQSVKGKVVIDAFRTINPQSMALNQEPRQTTSNLGHLQKPSIQALIHGLNRHYYSIPIAYRTHDLEQKMLLNLNKLSWMDAVSVENYSKCGEQNKEHLKAMLKLAKNYKKALEDEKNMTDQELAIKNVGKMDPKRHIADEVSKMLNDNIVQSLAGMMATTSLQ | not soluble |
| MERIALFIDGANVYAAAKRLGWNFDHRKILEHFAGLGALYNAFYYTAVPWPVDDKQKRFVDALTYMGYTVRTRPLRENTDENGDTSRRASLDIELVTDLLTTESRYDVAVLLSGDGDFERPVEVLRARGKKVIVASIPEMTSAELRNAADEYVDLASIREQVERPGYRLPSEGSGR | not soluble |
| MERKISRIHLVSEPSITHFLQVSWEKTLESGFVITLTDGHSAWTGTVSESEISQEADDMEMEKGKYVGELRKALLSGAGPADVYTFNFSKESCYFFFEKNLKDVSFRLGSFNLEKVENPAEVIRELICYCLDTTAENQAKNEHLQKENERLLRDWNDVQGRFEKCVSAKEALETDLYKRFILVLNEKKTKIRSLHNKLLNAAQ | soluble |
| MERYGYCIFCDDIRTEAGGKLSFIGCYNSAMFVTNEFPLSLPKLCVHFNVFSPADQPYKSLRVRCYLPGEDKPIAEESIEVPALQDQINLLTSLPKDQPMMPFIVVAASLIFSPCEIKSPGMIHVRAVINDSPTELHLGSLAVSSQATPQVALEHGPAAIN | not soluble |
| MESNDSGGVAAKHGFLFQDCVAAYHVTRMLRDKTIRSVRCEVTDDIDIVSDGYIDFVQVKSTGKTRWNISDIVQNSKGADKKTIPCSSILHKSMQCESDLSLGRRYSIVTEEKVNKTLEYLTISPNARLDKPGRQELIDDLNKRTDNFLTDSGISVSDWIDAATWEVFSSLRELELLGIKNIRLASQDLHGVILSSETVAEDIWCRILDTVTRKGEHSRRIHSADDKSYLRPDLLEWFKQRVEDDQSRSGRKIYVKRDLPHILTPFRAPMASVCAKRKGQVLHQQYSLKKYRYKHIADNVCQWLDEVFLRPKEMSDIHKLTFIEKRERLKNSVFKSLHDVSEFLGRVLLHATIRQHHESQPIPCMLYVEKAGAEKILENVHIVRRDPEGDQLWIGFSELVTDINIAVRLPEIRDQLYEDISDCIDTARKKILDIKDDNYLLRHDIDEILDGSQPFDAHLDRFTFVLFVGYDSNLLTEPETPGFEDDLEKETAVLFEKFAADLIEDSPFANLCIHVFIYPAPSLERLTQLVDEKVREVV | soluble |
| MESPNMRKRLIEMESSLEVKKTATTVKQEPLETSSPLLASMISTAPNPPPTSPHALNYLTLLAAFRQFLHGYIQAGGDENLANTLGNYVAALPMPPNSLNPIGPLNAPKSPFKQQQKFHSIIKAVKREPVSEPAQNAGSGDSSVTLSSALGEDAVPQNRGSCTSMKPVPRFVMLPVVAAQSASPSASGPTSEIQQLREAAFGRYKNVLCVICNEWICSRNRKNHIEAHLNYRPYKCSACSYARRREIFVDQHIRTQHKGVEGVVMLSDVDLHVAMEVDRLAEECVTRTRKIIDTMQEKKDGDFGENKDFDEKALQMMLAEEAENKVVVIESVSQVRPKVANYHRRQRTKVLKKIYDTDVAKQTELKIVKDEEGGVPTMSIKLEEGFEINLEDLMKMVGAGSSITDSNEPGPSEIKKELAEV | not soluble |
| MESQLPKFLKEPEKYSRLRLLEALQELYLSIEMLKEGYSRNSASKLFLSWKALLSSIVVTNFGKIMETKKKEGKEDEIKWYMRIGYSAPTTGLIGIARDLENLGFKGLVNLTTAMLGIHRYAYNGLDEDISPFHSRSEAIISIKGLIKAEVEIVGSMKFGDEEKELFEKIKRELNNILEHHHHHH | not soluble |
